Values of other authors, collected in article PMC11449013.
Like-named read-outs stand apart in the source and are kept apart here.

Molecular target: His128 (UniProt position 179, FICPCHGSQYN)

For “Cytochrome b6f complex Rieske iron-sulfur protein (ISP, PetC) (Spinacia oleracea (residue numbering; the article does not state the species in which the quoted values were measured))”, the pKa (2Fe2S cluster oxidised) is given as “∼6.2” and the pKa (2Fe2S cluster reduced) is given as “∼8”.
